The values that follow come from publication doi:10.1101/498865.

Test in all cases: other fluorescence titration
The target in experiment [1] is CyPet-Myo1^IQ1-YPet FRET reporter protein (S. pombe).
In experiment [2] the target is CyPet-Myo1^IQ12-YPet FRET reporter protein (S. pombe).
The target in experiment [3] is CyPet-Myo1^IQ1-YPet FRET reporter protein (S. pombe). This is another data set of the same source.
For experiment [4], the target named is CyPet-Myo1^IQ12-S742D-YPet FRET reporter protein (S. pombe).
In experiment [5] the target is CyPet-Myo1^IQ12-YPet FRET reporter protein (S. pombe). The source holds these as a separate data set.

Read-outs that look alike come from different tables or passages of the source.

In experiment [1], “Cam1 (fission yeast calmodulin), amino-terminally acetylated (from UniProt P05933 1-150) (natural protein)” registered a Kd of less than 100 nM. For the same molecule, in experiment [2], the KD of the first binding event was less than 0.1 µM and the KD of the second binding event worked out at 0.68 µM.

B1: Cam2 (fission yeast calmodulin-like protein) (natural protein)
chain: MPASKEQTDEMKEAFVLYDIDKDGLIPTSHVGSVLRSLGINVTDAELAKLSNELGDAIDEKKFMSFVSNKLRETESEEEYIKAFRVFDKDNSGYIETAKFADYMKTLGEKLSDNEVQLMVQEADPTNSGSFDYYDFVQRIMAK
B1 registered a Kd in experiment [3] of 400 nM. Besides, in experiment [4], the Kd came out at 250 nM and the stoichiometry N was found to be 1. In experiment [5], this molecule showed a KD of the phase with 70% of the signal change of 1.1 µM and a stoichiometry N of 2.
